# Measurements reported in IntAct's records for PubMed 15930137.
# B1: E3 ubiquitin-protein ligase NHLRC1 (Homo sapiens), Q6VVB1 (parent)
# chain: MAAEASESGPALHELMREAEISLLECKVCFEKFGHRQQRRPRNLSCGHVVCLACVAALAHPRTLALECPFCRRACRGCDTSDCLPVLHLIELLGSALRQSPAAHRAAPSAPGALTCHHTFGGWGTLVNPTGLALCPKTGRVVVVHDGRRRVKIFDSGGGCAHQFGEKGDAAQDIRYPVDVTITNDCHVVVTDAGDRSIKVFDFFGQIKLVIGGQFSLPWGVETTPQNGIVVTDAEAGSLHLLDVDFAEGVLRRTERLQAHLCNPRGVAVSWLTGAIAVLEHPLALGTGVCSTRVKVFSSSMQLVGQVDTFGLSLYFPSKITASAVTFDHQGNVIVADTSGPAILCLGKPEEFPVPKPMVTHGLSHPVALTFTKENSLLVLDTASHSIKVYKVDWG
# partner: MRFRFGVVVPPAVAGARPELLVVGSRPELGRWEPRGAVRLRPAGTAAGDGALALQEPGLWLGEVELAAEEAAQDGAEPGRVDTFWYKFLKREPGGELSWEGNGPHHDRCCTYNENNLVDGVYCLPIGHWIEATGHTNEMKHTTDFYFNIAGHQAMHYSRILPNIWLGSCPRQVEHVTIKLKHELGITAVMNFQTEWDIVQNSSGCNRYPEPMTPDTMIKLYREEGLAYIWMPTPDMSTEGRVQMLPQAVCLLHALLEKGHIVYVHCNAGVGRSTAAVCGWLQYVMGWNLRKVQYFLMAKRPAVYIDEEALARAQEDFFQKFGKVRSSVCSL
# Variants of: B1
# Details: with epm2a_human EPM2A
row,effect of a mutation on the interaction,Variant
1,disrupting interaction,E280K
2,disrupting interaction,Q302P

# Variants of: B1
# Details: with epm2a_human EPM2A
# Remark: another data set of the same source
row,effect of a mutation on the interaction,Variant
1,decreasing interaction,E280K
2,decreasing interaction,C26S
3,decreasing interaction,Q302P
4,decreasing interaction,F33S
